{"source": "paper PMC9741609", "about": "“A widely distributed family of eukaryotic and bacterial deubiquitinases related to herpesviral large tegument proteins” (Nature Communications, 2022)", "binders": {"B1": {"name": "Wc-VTD1 catalytic domain (aa279-494) (enzyme)", "chain": "KMPEEEQDSLAAFSRIEANITQYDPLLDNAGKSACTCICLKAAEMLLEASPDQVNAGLIDDILVEGVADYNRFKVGGVVEHTSVENYELNTFELKRLEFRDVDNPFSAEGNPYAGTLDSFAKMMEKASDSKDLPKPVALVMTKSNMTITIVIRPDGKYWLFDPHGTNGKGAYIESCNTDELIKKIKEIFPKTSYPGMTEDENLGFNSFEAYAVRRS", "notes": "also called wcw_1294; Waddlia VTD1; source: E. coli Rosetta (DE3) pLysS, purified (HisTrap, SEC)"}}, "biological_target": "T1, ubiquitin-PA (C-terminally propargylated ubiquitin 1-75) (human, UniProt P0CG48 1-75, C-terminal propargylamide (PA))", "T1 construct": "also called Ub-PA; wildtype Ub-PA; not shown: intein (from the vector pTXB1), C-terminal, cleaved", "assay": "crystal structure; covalent complex: 1.2 mM Wc-VTD1 incubated with 760 µM ubiquitin-PA for 18 h at 4 °C, unreacted proteins removed by SEC; crystals in 0.1 M BisTris propane pH 7.0, 2.0 M ammonium citrate tribasic at 20 °C", "conditions": "both partners purified"}
{"binder": "B1", "values": [{"measurement": "binding result", "value": "binds"}]}
